Experimental data reported in paper PMC9720396, “Autoreactivity and broad neutralization of antibodies against HIV-1 are governed by distinct mutations: Implications for vaccine design strategies” (Frontiers in Immunology, 2022).

Assays:
[1] = target: T1, host protein UBE3A (Abcam), coupled to Luminex beads (Homo sapiens, UniProt Q05086); test: Luminex bead-based binding assay; UBE3A (Abcam) covalently linked to carboxylated beads; Abs serially diluted 1:3 from 2 µg/ml in PBS with 0.05% NaN3, 0.05% Tween 20, 1% BSA and 1% milk; 2 hours at room temperature; detected with PE goat anti-human IgG; conditions: both partners purified
T1 construct: UBE3A, host protein; bought from Abcam (printed there as UBE34); also called UBE34; source: bought: Abcam

[2] = target: host proteins on the ProtoArray (9,400 human proteins) (human); test: peptide or protein array; ProtoArray (Invitrogen) with 9,400 human proteins, in duplicate; 2 µg/ml recombinant Ab, 1.5 hours at 4°C; detected with Alexa Fluor 647 anti-human IgG; compared with the control Ab 151K
[3] = target: T2, UBE3A on the ProtoArray human protein microarray (Homo sapiens, UniProt Q05086); test: as above; conditions: both partners purified
T2 construct: UBE3A, one of the 9,400 human proteins on the ProtoArray; source: bought: Invitrogen ProtoArray

[4] = target: T3, Cen B (Homo sapiens (assumed), UniProt P07199); test: ELISA; autoantigen ELISA (legend: Athena autoantigen assay); antigens coated at 20 µg/ml overnight at 4°C; Abs in serial dilutions 45 min at RT; HRP anti-human IgG, TMB, 450 nm; conditions: both partners purified
T3 construct: Cen B autoantigen (centromere protein B) of the autoantigen ELISA
T3 sequence (P07199 whole entry): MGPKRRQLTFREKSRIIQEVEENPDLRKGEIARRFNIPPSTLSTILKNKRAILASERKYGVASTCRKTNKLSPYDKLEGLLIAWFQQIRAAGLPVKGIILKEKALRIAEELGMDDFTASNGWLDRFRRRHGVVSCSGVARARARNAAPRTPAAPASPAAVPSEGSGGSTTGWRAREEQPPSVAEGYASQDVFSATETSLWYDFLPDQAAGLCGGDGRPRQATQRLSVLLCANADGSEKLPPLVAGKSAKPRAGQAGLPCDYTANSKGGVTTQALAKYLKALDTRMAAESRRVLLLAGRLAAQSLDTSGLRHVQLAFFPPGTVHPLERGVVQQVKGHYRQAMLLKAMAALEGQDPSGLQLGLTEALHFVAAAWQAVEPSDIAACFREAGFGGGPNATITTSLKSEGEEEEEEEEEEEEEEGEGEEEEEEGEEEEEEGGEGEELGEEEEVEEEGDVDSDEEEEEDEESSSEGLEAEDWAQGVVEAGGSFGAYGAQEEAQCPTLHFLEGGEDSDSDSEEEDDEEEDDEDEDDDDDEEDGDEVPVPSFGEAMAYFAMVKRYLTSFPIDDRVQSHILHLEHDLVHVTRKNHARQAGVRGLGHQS

T1 sequence (Q05086 whole entry): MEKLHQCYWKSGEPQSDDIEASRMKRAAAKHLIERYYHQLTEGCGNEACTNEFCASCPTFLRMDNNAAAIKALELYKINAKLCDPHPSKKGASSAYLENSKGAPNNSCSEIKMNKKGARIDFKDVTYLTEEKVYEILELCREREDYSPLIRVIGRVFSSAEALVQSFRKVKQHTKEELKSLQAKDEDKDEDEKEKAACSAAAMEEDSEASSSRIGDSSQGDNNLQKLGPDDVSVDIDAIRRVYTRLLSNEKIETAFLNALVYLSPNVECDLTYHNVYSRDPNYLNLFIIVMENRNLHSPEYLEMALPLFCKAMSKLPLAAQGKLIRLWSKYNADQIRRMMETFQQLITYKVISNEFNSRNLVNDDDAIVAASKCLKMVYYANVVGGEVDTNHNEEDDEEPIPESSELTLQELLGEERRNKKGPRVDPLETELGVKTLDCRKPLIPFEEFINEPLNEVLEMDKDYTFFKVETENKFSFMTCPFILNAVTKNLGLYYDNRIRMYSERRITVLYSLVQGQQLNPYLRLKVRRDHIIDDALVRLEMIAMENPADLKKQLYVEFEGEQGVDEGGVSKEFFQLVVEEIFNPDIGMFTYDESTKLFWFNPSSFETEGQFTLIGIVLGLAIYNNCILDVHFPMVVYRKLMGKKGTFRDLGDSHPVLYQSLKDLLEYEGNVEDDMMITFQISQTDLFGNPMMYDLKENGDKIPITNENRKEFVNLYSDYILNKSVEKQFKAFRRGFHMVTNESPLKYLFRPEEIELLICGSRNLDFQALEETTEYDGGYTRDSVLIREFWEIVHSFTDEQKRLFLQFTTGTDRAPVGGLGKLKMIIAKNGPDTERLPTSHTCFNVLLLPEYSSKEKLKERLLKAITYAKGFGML

B1: CH103 VL F49Y mutant (antibody, V domains shown)
V domain 1: QVQLQESGPGVVKSSETLSLTCTVSGGSMGGTYWSWLRLSPGKGLEWIGYIFHTGETNYSPSLKGRVSISVDTSEDQFSLRLRSVTAADTAVYFCASLPRGQLVNAYFRNWGRGSLVSVTA
V domain 2: SYELTQPPSVSVSPGQTATITCSGASTNVCWYQVKPGQSPEVVIYENYKRPSGIPDRFSGSKSGSTATLTIRGTQAIDEADYYCQVWDSFSTFVFGSGTQVTV
notes: as the heavy chain of m10 (CH103); as the light chain of m10 (CH103); recombinant IgG; source: Expi293, transiently transfected, purified (Protein A agarose)
For B1, the “fold reduction of binding against parental CH103” value [1] was ~10 fold.

B2: IA1, inferred late intermediate of the CH103-106 bnAb lineage (antibody, V domains shown)
V domain 1: QVQLQESGPGVVKSSETLSLTCTVSGGSMGGTYWSWLRLSPGKGLEWIGYIFHTGHTNYSPSLKGRVSISVDTSEDQFSLRLRSVTAADTAVYFCASLPRGQLVNAYFRNWGRGTLVSVTA
V domain 2: SYELTQPPSVSVSPGQTATITCSGDKVASKNVCWYQVKPGQSPEVVMYENYKRPSGIPDRFSGSKSGSTATLTIRGTQATDEADYYCQVWDSFSTFVFGSGTQVTV
notes: as the heavy chain of m8 (IA2) with the two changes below; same light chain as IA2; recombinant IgG; also called 1A1; source: Expi293, transiently transfected, purified (Protein A agarose)
In the case of B2, the polyreactivity index (PI) [2] is reported as 0.64 and the “fold higher binding than Abs without E64K” value [3] is reported as ~10 fold.

B3: CH103 VH T23S mutant (antibody, V domains shown)
V domain 1: QVQLQESGPGVVKSSETLSLTCSVSGGSMGGTYWSWLRLSPGKGLEWIGYIFHTGETNYSPSLKGRVSISVDTSEDQFSLRLRSVTAADTAVYFCASLPRGQLVNAYFRNWGRGSLVSVTA
V domain 2: SYELTQPPSVSVSPGQTATITCSGASTNVCWYQVKPGQSPEVVIFENYKRPSGIPDRFSGSKSGSTATLTIRGTQAIDEADYYCQVWDSFSTFVFGSGTQVTV
notes: as for B1
B3: binds [1].

B4: CH103 VL E45D mutant (antibody, V domains shown)
V domain 1: QVQLQESGPGVVKSSETLSLTCTVSGGSMGGTYWSWLRLSPGKGLEWIGYIFHTGETNYSPSLKGRVSISVDTSEDQFSLRLRSVTAADTAVYFCASLPRGQLVNAYFRNWGRGSLVSVTA
V domain 2: SYELTQPPSVSVSPGQTATITCSGASTNVCWYQVKPGQSPDVVIFENYKRPSGIPDRFSGSKSGSTATLTIRGTQAIDEADYYCQVWDSFSTFVFGSGTQVTV
notes: as the heavy chain of m10 (CH103); as the light chain of m10 (CH103); recombinant IgG; also called the VL E45D mutant; source: Expi293, transiently transfected, purified (Protein A agarose)
B4: binds [1].

B5: CH103, mature CD4 binding site bnAb (antibody, V domains shown)
V domain 1: QVQLQESGPGVVKSSETLSLTCTVSGGSMGGTYWSWLRLSPGKGLEWIGYIFHTGETNYSPSLKGRVSISVDTSEDQFSLRLRSVTAADTAVYFCASLPRGQLVNAYFRNWGRGSLVSVTA
V domain 2: SYELTQPPSVSVSPGQTATITCSGASTNVCWYQVKPGQSPEVVIFENYKRPSGIPDRFSGSKSGSTATLTIRGTQAIDEADYYCQVWDSFSTFVFGSGTQVTV
notes: recombinant IgG; source: Expi293, transiently transfected, purified (Protein A agarose)
B5: binds [1].

B6: CH103 VL T31V mutant (antibody, V domains shown)
V domain 1: QVQLQESGPGVVKSSETLSLTCTVSGGSMGGTYWSWLRLSPGKGLEWIGYIFHTGETNYSPSLKGRVSISVDTSEDQFSLRLRSVTAADTAVYFCASLPRGQLVNAYFRNWGRGSLVSVTA
V domain 2: SYELTQPPSVSVSPGQTATITCSGASVNVCWYQVKPGQSPEVVIFENYKRPSGIPDRFSGSKSGSTATLTIRGTQAIDEADYYCQVWDSFSTFVFGSGTQVTV
notes: as for B1
B6: binds [1].

B7: CH103 VL I48M mutant (antibody, V domains shown)
V domain 1: QVQLQESGPGVVKSSETLSLTCTVSGGSMGGTYWSWLRLSPGKGLEWIGYIFHTGETNYSPSLKGRVSISVDTSEDQFSLRLRSVTAADTAVYFCASLPRGQLVNAYFRNWGRGSLVSVTA
V domain 2: SYELTQPPSVSVSPGQTATITCSGASTNVCWYQVKPGQSPEVVMFENYKRPSGIPDRFSGSKSGSTATLTIRGTQAIDEADYYCQVWDSFSTFVFGSGTQVTV
notes: as for B1
For B7, the “fold reduction of binding against parental CH103” value [1] was ~10 fold.

B8: CH103 VH E56H mutant (antibody, V domains shown)
V domain 1: QVQLQESGPGVVKSSETLSLTCTVSGGSMGGTYWSWLRLSPGKGLEWIGYIFHTGHTNYSPSLKGRVSISVDTSEDQFSLRLRSVTAADTAVYFCASLPRGQLVNAYFRNWGRGSLVSVTA
V domain 2: SYELTQPPSVSVSPGQTATITCSGASTNVCWYQVKPGQSPEVVIFENYKRPSGIPDRFSGSKSGSTATLTIRGTQAIDEADYYCQVWDSFSTFVFGSGTQVTV
notes: as the heavy chain of m10 (CH103); as the light chain of m10 (CH103); recombinant IgG; also called the VH E56H mutant; source: Expi293, transiently transfected, purified (Protein A agarose)
B8: binds [1]; binds [4].
